According to patent US12383631 (BRIGHT PEAK THERAPEUTICS, dated 2025):

B1: recombinant Human Fc gamma RI/CD64 Protein (R&D systems, 1257-FC-050) (receptor)
chain: QVDTTKAVITLQPPWVSVFQEETVTLHCEVLHLPGSSSTQWFLNGTATQTSTPSYRITSASVNDSGEYRCQRGLSGRSDPIQLEIHRGWLLLQVSSRVFTEGEPLALRCHAWKDKLVYNVLYYRNGKAFKFFHWNSNLTILKTNISHNGTYHCSGMGKHRYTSAGISVTVKELFPAPVLNASVTSPLLEGNLVTLSCETKLLLQRPGLQLYFSFYMGSKTLRGRNTSSEYQILTARREDSGLYWCEAATEDGNVLKRSPELELQVLGLQLPTP
notes: detected with an anti-His antibody; tag not described; also called FcγRI/CD64; human Fc gamma receptor I

Experiments:
[1] = molecular target: T1, Composition B (Atezolizumab/Tecentriq conjugated to IL-18 polypeptide of SEQ ID NO: 30) (human, UniProt P0DOX5 2-449 = IgG part; P0DOX7 1-214; Q14116 37-193, chemical linker to the antibody; site not stated for this composition; chemical linker to IL-18; site not stated for this composition); experiment: ELISA; immunocytokine coated, receptor titrated, anti-His-HRP
T1 construct: immunocytokine
Description: (§1) The interaction of the unmodified and of conjugated antibodies with human Fc gamma receptors I (FcγRI/CD64), with human Fc gamma receptors IIa (FcγRIIa/CD32a), with inhibitory human Fc gamma receptors IIb (FcγRIIb/CD32b), and with human Fc gamma receptors III FcγRIIIa/CD16 were measured by ELISA.
Briefly, Corning high-binding half-area plates (Fisher Scientific, Reinach, Switzerland) were coated overnight at 4° C. with 25 μl of unmodified and of conjugated anti-PD1 antibodies at 2.5 μg/ml in PBS. Plates were then washed four times with 100 μl of PBS-0.02% Tween20. Plates surfaces were blocked with 25 μl of PBS-0.02% Tween20-1% BSA at 37° C. during 1 h. Plates were then washed four times with 100 μl of PBS-0.02% Tween20. […] ELISA signal was then measured at 450 nm on an EnSpire plate reader from Perkin Elmer (Schwerzenbach, Switzerland). Binding Affinity of Reference Antibodies and Immunocytokines with Human Fc Gamma Receptors as Measured by ELISA

[2] = molecular target: T2, recombinant biotinylated human FcRn (human, UniProt P55899 24-297; P61769 21-119, limits assumed, biotinylated); experiment: AlphaLISA competition at pH 6; competitor: human IgG on acceptor beads
T2 construct: also called human neonatal Fc receptor (FcRn)
Description: The interaction of the unmodified and of conjugated anti-PD1 antibodies with the human neonatal Fc receptor (FcRn) at pH 6 was measured using the AlphaLISA® Human FcRn Binding Kit (AL3095C) from Perkin Elmer (Schwerzenbach, Switzerland).
After 90 min at 23° C. in the dark, AlphaLISA® signal was measured on an EnSpire plate reader (Excitation at 680 nm, Emission at 615 nm) from Perkin Elmer (Schwerzenbach, Switzerland). Binding Affinity of Reference Antibodies and Immunocytokines with the Human Neonatal Fc Receptor as Measured by AlphaLISA

[3] = molecular target: T3, recombinant Human Fc gamma RIIIA/CD16a Protein (R&D systems, 4325-FC-050) (human, UniProt P08637 17-208); experiment: ELISA; antibody coated, receptor titrated, anti-His-HRP
T3 construct: detected with an anti-His antibody; tag and allotype not described; also called FcγRIIIa (CD16)
Description: as §1
(§2) Briefly, Corning high-binding half-area plates (Fisher Scientific, Reinach, Switzerland) were coated overnight at 4° C. with 25 μl of unmodified and of conjugated anti-PD1 antibodies at 2.5 μg/ml in PBS. Plates were then washed four times with 100 μl of PBS-0.02% Tween20. Plates surfaces were blocked with 25 μl of PBS-0.02% Tween20-1% BSA at 37° C. during 1 h. Plates were then washed four times with 100 μl of PBS-0.02% Tween20. Then twenty-five microliters of either recombinant Human Fc gamma RI/CD64 Protein (R&D systems, 1257-FC-050, CF), recombinant Human Fc gamma RIIA/CD32a (H167) Protein (R&D systems, 9595-CD-050, CF), recombinant Human Fc gamma RIIB/CD32b Avi-tag Protein (R&D systems, AVI1875-050, CF), or recombinant Human Fc gamma RIIIA/CD16a Protein (R&D systems, 4325-FC-050; CF) were added in five-fold serial dilutions ranging from 1000 nM to 0.001 nM into PBS-0.02% Tween20-0.1% BSA and incubated at 37° C. during 2 h. Plates were then washed four times with 100 μl of PBS-0.02% Tween20. Twenty-five microliters of a 1/500 HRP-anti-His antibody in PBS—0.02% Tween20-0.1% BSA (R&D systems, anti-HIS—HRP Ab, #MAB050H) were added to each well and plates were incubated at Room Temperature during 1 h. Plates were then washed four times with 100 μl of PBS-0.02% Tween20. Fifty microliters of TMB substrate reagent (#CL07, Merck, Buchs, Switzerland) were added to each well and incubated at 37° C. during 5 min. After 5 min at 37° C., Horseradish peroxidase reaction was stopped by adding 50 μl/well of 0.5M H2SO4 stop solution. ELISA signal was then measured at 450 nm on an EnSpire plate reader from Perkin Elmer (Schwerzenbach, Switzerland). Binding Affinity of Reference Antibodies and Immunocytokines with Human Fc Gamma Receptors as Measured by ELISA

[4] = molecular target: B1; experiment: as above
Description: as §1, §2

Row | Kd [1] [nM] | Kd [2] [nM] | Kd [3] [nM] | Kd [4] [nM] | Binder
1 | 1740 |  |  |  | recombinant Human Fc gamma RIIA/CD32a (H167) Protein (R&D systems, 9595-CD-050) (receptor, detected with an anti-His antibody; tag not described; also called FcγRIIa (CD32a)) AAPPKAVLKLEPPWINVLQEDSVTLTCQGARSPESDSIQWFHNGNLIPTHTQPSYRFKANNNDSGEYTCQTGQTSLSDPVHLTVLSEWLVLQTPHLEFQEGETIMLRCHSWKDKPLVKVTFFQNGKSQKFSHLDPTFSIPQANHSHSGDYHCTGNIGYTLFSSKPVTITVQVPSMGSSSPMGI
2 |  | 5.36 |  |  | Avelumab/Bavencio (antibody, human IgG1, lambda, also called MSB-0010718C) heavy: not shown light: QSALTQPASVSGSPGQSITISCTGTSSDVGGYNYVSWYQQHPGKAPKLMIYDVSNRPSGVSNRFSGSKSGNTASLTISGLQAEDEADYYCSSYTSSSTRVFGTGTKVTVLGQPKANPTVTLFPPSSEELQANKATLVCLISDFYPGAVTVAWKADGSPVKAGVETTKPSKQSNNKYAASSYLSLTPEQWKSHRSYSCQVTHEGSTVEKTVAPTECS
3 |  | 7.45 | 1660 | 0.593 | Pembrolizumab/Keytruda (antibody, human IgG4 S228P, kappa, also called Lambrolizumab; MK-3475) heavy: not shown light: EIVLTQSPATLSLSPGERATLSCRASKGVSTSGYSYLHWYQQKPGQAPRLLIYLASYLESGVPARFSGSGSGTDFTLTISSLEPEDFAVYYCQHSRDLPLTFGGGTKVEIKRTVAAPSVFIFPPSDEQLKSGTASVVCLLNNFYPREAKVQWKVDNALQSGNSQESVTEQDSKDSTYSLSSTLTLSKADYEKHKVYACEVTHQGLSSPVTKSFNRGEC
4 | 10.8 |  |  |  | B1
